{"source": "patent US20130108549A1", "about": "(ADLYFE, published 2013)", "binders": {"B1": {"name": "Peptide probe specific for Aβ (SEQ ID NO:36) labeled at each terminus with pyrene (peptide)", "peptide": "pyrene-KLVFFAEDVGSNKGAIIGLM-pyrene", "notes": "also called Aβ peptide probe; dipyrene labeled peptide probe"}}, "molecular_target": "T1, Aβ42 oligomers (Homo sapiens (Human), UniProt P05067 672-713)", "T1 construct": "also called oligomers of Aβ42 (including dimers, trimers, tetramers, hexamers and 12-mers); oligomeric forms of Aβ42", "T1 sequence (P05067 672-713 limits assumed)": "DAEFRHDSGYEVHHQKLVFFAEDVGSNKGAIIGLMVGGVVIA", "test": "pyrene excimer fluorescence, excitation 350 nm, scan 360-600 nm", "note": "pyrene = pyrene fluorescent label"}
{"binder": "B1", "values": [{"measurement": "binding result", "result": "binds"}]}
